Test results as given in article PMC9133651, “Elucidation of physico-chemical principles of high-density lipoprotein–small RNA binding interactions”.

B1: tDR-GluCTC-30 (ssRNA)
RNA: CCUGGUGGUCUAGUGGUUAGGAUUCGGCGC
B2: miR-375-3p (ssRNA)
RNA: UUUGUUCGUUCGGCUCGCGUGA
B3: miR-223-3p (ssRNA)
RNA: UGUCAGUUUGUCAAAUACCCCA

The binders below were run against apolipoprotein A-I (lipid-free) (Homo sapiens, UniProt P02647 25-267) (assay: MST; Kd only in figure; MST: 100 nM AF647 oligo (90 C 2 min, cooled) mixed 1:1 with ligand in PBS, RT, 5 min; EMSA: 1 uM AF546 oligo, UV 254 nm 15 min on ice, 4-16% NativePAGE, 0.5x TBE). Details: protein: native; label: 3' Alexa Fluor 647.
apolipoprotein A-I (lipid-free), sequence (P02647 25-267): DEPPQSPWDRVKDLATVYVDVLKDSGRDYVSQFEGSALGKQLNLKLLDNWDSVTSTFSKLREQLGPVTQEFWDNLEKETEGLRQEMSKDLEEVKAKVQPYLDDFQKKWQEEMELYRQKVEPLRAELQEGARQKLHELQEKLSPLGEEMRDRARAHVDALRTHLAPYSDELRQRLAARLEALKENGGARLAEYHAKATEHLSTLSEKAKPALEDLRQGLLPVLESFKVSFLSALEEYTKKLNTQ
B1: binds. B2: binds. B3: binds.
